Reference: paper doi:10.1101/2023.06.23.546240

How the values were obtained:
Assay in all cases: SPR
Conditions in all cases: not given in the material (no Methods text)
HILI (PIWIL2) (human) = HILI (PIWIL2) (human) (UniProt Q8TC59)
MILI (PIWIL2) (mouse) = MILI (PIWIL2) (mouse) (UniProt Q8CDG1)
[1] = target: T1, EfPiwi (Ephydatia fluviatilis) (UniProt D5MRY8)
T1 sequence: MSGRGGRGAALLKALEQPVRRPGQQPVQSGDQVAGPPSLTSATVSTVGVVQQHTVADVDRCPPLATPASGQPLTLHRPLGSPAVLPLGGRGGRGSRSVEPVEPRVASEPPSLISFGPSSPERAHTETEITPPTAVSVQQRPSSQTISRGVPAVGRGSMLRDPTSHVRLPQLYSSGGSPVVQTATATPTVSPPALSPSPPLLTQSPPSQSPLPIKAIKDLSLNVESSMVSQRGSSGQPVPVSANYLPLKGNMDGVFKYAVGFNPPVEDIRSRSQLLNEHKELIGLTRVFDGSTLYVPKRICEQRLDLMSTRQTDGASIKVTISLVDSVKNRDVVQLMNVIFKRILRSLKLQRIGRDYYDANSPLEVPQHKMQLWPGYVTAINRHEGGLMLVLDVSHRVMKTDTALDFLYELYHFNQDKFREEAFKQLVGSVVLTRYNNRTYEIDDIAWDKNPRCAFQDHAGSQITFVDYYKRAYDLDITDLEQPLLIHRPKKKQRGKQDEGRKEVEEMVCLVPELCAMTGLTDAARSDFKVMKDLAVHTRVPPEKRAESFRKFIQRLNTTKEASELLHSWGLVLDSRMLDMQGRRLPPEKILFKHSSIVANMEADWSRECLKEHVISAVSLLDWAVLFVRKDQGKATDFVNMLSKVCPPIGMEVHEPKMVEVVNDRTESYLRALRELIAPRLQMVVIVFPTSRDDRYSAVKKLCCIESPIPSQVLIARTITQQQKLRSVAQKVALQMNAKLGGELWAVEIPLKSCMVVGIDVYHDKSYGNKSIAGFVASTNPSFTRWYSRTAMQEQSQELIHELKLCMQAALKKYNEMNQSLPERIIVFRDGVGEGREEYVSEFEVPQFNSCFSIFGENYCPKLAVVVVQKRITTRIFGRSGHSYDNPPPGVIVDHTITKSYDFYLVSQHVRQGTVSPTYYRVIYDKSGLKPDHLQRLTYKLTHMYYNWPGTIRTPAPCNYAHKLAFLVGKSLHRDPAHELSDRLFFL

Sequence of MILI (PIWIL2) (mouse) (Q8CDG1 whole entry): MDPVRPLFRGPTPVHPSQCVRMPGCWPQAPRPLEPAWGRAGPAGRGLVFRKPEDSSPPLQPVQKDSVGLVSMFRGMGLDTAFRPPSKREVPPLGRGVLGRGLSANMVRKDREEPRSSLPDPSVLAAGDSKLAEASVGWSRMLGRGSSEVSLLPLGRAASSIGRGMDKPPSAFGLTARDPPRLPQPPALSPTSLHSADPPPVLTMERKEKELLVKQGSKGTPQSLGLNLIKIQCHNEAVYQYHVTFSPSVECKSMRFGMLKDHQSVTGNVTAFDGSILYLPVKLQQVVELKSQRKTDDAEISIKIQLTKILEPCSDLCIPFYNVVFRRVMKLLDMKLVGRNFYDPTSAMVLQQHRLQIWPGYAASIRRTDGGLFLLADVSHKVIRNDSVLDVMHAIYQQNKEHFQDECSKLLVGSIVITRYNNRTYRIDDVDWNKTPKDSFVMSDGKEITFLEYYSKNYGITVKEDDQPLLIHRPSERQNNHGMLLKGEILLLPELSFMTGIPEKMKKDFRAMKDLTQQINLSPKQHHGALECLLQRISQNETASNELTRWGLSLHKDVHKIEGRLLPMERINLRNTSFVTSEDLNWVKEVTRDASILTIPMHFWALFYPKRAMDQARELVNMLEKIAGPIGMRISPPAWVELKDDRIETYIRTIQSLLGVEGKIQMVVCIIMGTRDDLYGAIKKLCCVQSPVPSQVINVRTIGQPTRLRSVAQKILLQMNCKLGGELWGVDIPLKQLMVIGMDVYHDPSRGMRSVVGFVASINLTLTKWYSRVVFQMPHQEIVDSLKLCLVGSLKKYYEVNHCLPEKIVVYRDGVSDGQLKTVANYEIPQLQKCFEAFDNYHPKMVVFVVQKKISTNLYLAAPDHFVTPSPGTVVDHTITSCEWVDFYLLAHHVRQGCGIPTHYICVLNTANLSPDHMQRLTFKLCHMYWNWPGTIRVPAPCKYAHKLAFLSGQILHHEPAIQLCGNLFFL
Sequence of HILI (PIWIL2) (human) (Q8TC59 whole entry): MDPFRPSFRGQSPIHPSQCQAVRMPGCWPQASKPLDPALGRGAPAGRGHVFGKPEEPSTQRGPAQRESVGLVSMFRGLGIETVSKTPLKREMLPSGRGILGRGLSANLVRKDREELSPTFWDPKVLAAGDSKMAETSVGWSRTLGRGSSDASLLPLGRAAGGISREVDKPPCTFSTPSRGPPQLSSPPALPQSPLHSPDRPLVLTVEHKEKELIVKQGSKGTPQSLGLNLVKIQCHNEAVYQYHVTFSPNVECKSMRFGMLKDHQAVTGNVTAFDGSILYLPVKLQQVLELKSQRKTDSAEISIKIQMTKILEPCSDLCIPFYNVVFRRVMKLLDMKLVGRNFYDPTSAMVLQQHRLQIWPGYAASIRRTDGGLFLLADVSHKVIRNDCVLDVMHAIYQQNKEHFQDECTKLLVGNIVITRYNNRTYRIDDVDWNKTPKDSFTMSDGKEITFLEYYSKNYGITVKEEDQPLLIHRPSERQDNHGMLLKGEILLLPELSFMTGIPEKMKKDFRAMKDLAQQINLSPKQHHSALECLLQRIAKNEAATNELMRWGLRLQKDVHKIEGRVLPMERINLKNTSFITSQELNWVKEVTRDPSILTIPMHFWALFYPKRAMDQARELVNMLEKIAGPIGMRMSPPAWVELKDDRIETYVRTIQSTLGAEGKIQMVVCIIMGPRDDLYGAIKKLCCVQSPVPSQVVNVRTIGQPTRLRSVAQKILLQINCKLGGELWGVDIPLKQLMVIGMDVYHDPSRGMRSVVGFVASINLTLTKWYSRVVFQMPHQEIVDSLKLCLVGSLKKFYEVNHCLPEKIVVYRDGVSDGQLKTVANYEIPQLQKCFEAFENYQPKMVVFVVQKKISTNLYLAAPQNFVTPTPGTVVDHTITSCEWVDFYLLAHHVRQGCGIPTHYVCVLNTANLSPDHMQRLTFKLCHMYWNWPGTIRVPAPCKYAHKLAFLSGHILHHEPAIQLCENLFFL

Substance | binding signal (fold higher affinity than EfPiwi) (HILI (PIWIL2) (human)) | binding signal (fold higher affinity than EfPiwi) (MILI (PIWIL2) (mouse)) | binding signal (fold higher KD than MILI or HILI) [1]
piRNA guide + seed-complementary (g2-g8) target | 6 | 6 | 
piRNA guide + target with g3-g4 dinucleotide mismatch |  |  | 20
